In patent US20160327558A1 (HELMHOLTZ ZENTRUM M NCHEN DEUTSCHES FORSCHUNGSZENTRUM F R …, published 2016):
Primed or numbered codes have the meaning given here. The star is where a group is joined. AOMK(5) = C-terminal Arg as acyloxymethyl ketone (dimethyl benzoic acid leaving group), Cc1cccc(C)c1C(=O)OCC(=O)[C@H](CCCNC(=N)N)N*; AOMK(4) = acyloxymethyl ketone (C-terminal covalent warhead); BODIPY(FL) = CC1=CC(C)=[N+]2C1=Cc1ccc(CCC(=O)*)n1[B-]2(F)F; FITC = O=C1OC2(c3ccc(O)cc3Oc3cc(O)ccc32)c2ccc(NC(=S)*)cc21; Butanoyl(4-ethynyl) = C#CCCCC(=O)*

Experiments:
Human cathepsin B [1] = target: T1, Human cathepsin B (human, UniProt P07858 80-333); test: extracts of Jurkat T cells labeled with probe 5, in-gel fluorescence
Human cathepsin B [2] = target: T1, Human cathepsin B; test: Jurkat whole cell extract labeled with probe 5 or probe 6, fluorescent scanning
Protocol: FIG. 6: Jurkat T cells were stimulated or not, lysed and whole cell extract was incubated with indicated concentrations of FITC conjugated probe 5 or BODIPY conjugated probe 6 and analyzed via fluorescent scanning. Probe 6 results in slightly higher active MALT1 labeling and cathepsin labeling (open circle) seems to be reduced.
Jurkat T cells (1-2×10⁷), primary human PBMCs or primary human T cells (0.25 or 1×10⁷) were lysed in 150 μl co-IP buffer without protease inhibitors. DLBCL (3×10⁷) were lysed in 250 μl buffer. After centrifugation (14000 rpm, 10 min, 4° C.), 100 μl extract (DLBCL: 200 μl) was stained with probe 5 or probe 6 (3 μM end) for 50 min at 29° C., mixed with 4× loading dye and boiled.

[3] = target: T2, FLAG-MALT1 active site mutant C464A (C453A in Isoform B) (human, UniProt Q9UDY8 2-824); test: labeling after FLAG IP, SDS PAGE, fluorescence scanning
T2 construct: Isoform B with C453A; also called MALT1 mutant; not shown: N-terminal FLAG tag (or HA tag)
T2 sequence: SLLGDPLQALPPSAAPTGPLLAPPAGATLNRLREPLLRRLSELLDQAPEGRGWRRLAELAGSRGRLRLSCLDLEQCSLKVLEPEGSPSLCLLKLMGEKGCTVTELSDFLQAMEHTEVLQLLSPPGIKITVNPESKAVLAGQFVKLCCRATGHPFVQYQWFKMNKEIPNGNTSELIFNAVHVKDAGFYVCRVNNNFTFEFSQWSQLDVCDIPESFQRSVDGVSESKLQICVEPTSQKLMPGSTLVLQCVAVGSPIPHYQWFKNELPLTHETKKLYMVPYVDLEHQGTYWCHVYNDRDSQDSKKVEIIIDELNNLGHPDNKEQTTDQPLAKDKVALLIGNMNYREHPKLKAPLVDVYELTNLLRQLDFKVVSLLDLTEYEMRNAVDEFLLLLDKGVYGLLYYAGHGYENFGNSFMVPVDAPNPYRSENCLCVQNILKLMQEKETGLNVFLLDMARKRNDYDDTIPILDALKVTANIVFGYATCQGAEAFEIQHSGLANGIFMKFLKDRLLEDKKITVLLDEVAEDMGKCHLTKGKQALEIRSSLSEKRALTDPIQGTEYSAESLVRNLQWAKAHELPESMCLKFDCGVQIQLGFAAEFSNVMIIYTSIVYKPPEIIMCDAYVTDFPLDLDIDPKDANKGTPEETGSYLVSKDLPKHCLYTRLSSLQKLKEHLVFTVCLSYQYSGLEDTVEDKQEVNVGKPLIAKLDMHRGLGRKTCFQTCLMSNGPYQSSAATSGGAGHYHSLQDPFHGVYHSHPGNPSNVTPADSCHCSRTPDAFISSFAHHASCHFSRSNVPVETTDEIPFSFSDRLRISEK
Protocol: (§1) Jurkat T cells, transfected with active FLAG-[…] wt or active site mutant C464A, were stained after lysis and IP with probe 2, pre-clicked to TAMRA. Analysis was done by fluorescence staining.
(§2) Cells were lysed in 500 μl co-IP buffer without protease inhibitors (25 mM hepes pH 7.5, 150 mM NaCl, 0.2% NP-40, 10% glycerol, 1 mM DTT, 10 mM sodium fluoride, 8 mM β-glycerophosphate and 300 μM sodium vanadate), centrifuged (14000 rpm, 10 min, 4° C.) and overexpressed FLAG MALT1 was immunoprecipitated by FLAG (M2) antibody for 3 hours at 4° C. PGS was added for 1 h at 4° C., precipitate was washed 2× with co-IP buffer and 1× with 50 mM hepes pH 7.4. Precipitated MALT1 was incubated with 0.3 μM pre-clicked probe 2 (in 20 μl 50 mM hepes pH 7.4) for 50 min at 29° C., mixed with 4× loading dye and boiled for 3 min. After protein separation by SDS PAGE, staining with diagnostic inhibitor was detected by Typhoon Fluorescence Scanner (FITC laser 488 nm/filter 526 SP; TAMRA laser 532 nm/filter 580 BP).

[4] = target: T3, FLAG-MALT1 wt (MALT1 Isoform B, overexpressed in Jurkat T cells) (human, UniProt Q9UDY8 2-824); test: labeling after lysis and FLAG IP, in-gel fluorescence
T3 construct: also called overexpressed FLAG-MALT1 wt; not shown: N-terminal FLAG tag (or HA tag)
T3 sequence: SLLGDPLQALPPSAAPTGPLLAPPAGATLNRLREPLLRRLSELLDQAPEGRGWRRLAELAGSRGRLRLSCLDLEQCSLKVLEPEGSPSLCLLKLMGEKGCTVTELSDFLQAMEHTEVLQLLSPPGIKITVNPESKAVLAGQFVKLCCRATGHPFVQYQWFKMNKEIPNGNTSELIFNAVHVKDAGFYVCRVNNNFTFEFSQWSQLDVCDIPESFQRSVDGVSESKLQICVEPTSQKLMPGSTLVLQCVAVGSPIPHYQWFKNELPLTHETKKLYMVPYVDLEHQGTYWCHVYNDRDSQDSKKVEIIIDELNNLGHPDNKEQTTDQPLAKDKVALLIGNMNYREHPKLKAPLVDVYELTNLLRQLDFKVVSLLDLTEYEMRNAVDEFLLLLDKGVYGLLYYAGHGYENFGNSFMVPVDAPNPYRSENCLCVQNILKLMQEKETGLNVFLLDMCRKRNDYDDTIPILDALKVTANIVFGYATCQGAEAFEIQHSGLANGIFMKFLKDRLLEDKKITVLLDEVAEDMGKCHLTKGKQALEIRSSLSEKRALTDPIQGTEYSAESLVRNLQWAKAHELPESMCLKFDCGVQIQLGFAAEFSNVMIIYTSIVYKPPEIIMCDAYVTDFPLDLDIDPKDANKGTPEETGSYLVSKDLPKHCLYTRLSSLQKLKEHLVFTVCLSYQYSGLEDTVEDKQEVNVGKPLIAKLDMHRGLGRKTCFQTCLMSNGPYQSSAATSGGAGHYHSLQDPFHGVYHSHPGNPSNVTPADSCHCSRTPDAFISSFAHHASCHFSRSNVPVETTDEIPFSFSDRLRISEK
Protocol: as §1, §2

Human cathepsin B [5] = target: T1, Human cathepsin B; test: reduction of the labeled cathepsin B band and in vitro cathepsin B cleavage assay
Protocol: 0.2 ng cathepsin B together with probe 5, z-VRPR-FMK, mepazine or CA-074 was incubated with 1 mM zRR-AMC substrate for 2 h at 30° C. Assay was performed in 0.1 M sodium acetate pH 5.5, 10 mM DTT and 0.1 mM EDTA. Again, increase of AMC fluorescence is measured in a Synergy 2 Microplate Reader (Biotek).
Importantly, MALT1 was the only inducible band in extracts labeled with probe 5, although some background signals were obtained. […] As expected, Caspase 8 activity was not affected by the diagnostic inhibitors of MALT1 of the present invention. […] In agreement with cross-reaction of the diagnostic MALT1 inhibitors of the present invention and cathepsin B, preincubation of CA-074Me in Jurkat T cells completely abolished detection of the ˜30 kDa signal while inducible MALT1 labeling was unaffected (FIG. 3D). Thus, tetrapeptides that target the active site of MALT1 are also binding to cathepsin B. Since serine (LRSR) or proline (VRPR) at the P2 position is already poorly tolerated by cysteine cathepsins, improvement of the peptide scaffold may be very difficult.

B1: probe 5 (FITC-LRSR-AOMK) (peptide)
peptide: {FITC}-LRSR-{AOMK(4)}
notes: Covalent activity-based probe; also called FITC conjugated probe 5
B1: binds (Human cathepsin B [1]).

B2: probe 6 ((BODIPY-FL)-LRSR-AOMK) (peptide)
peptide: {BODIPY(FL)}-LRSR-{AOMK(5)}
SMILES: CC1=CC(C)=[N+]2C1=Cc1ccc(CCC(=O)N[C@@H](CC(C)C)C(=O)N[C@@H](CCCNC(=N)N)C(=O)N[C@@H](CO)C(=O)N[C@@H](CCCNC(=N)N)C(=O)N[C@@H](CCCNC(=N)N)C(=O)COC(=O)c3c(C)cccc3C)n1[B-]2(F)F
notes: Covalent activity-based probe; also called BODIPY conjugated probe 6; BODIPY probe 6
B2: binds (Human cathepsin B [2]).

B3: probe 2 (alkyne-LRSR-AOMK), pre-clicked to TAMRA (peptide)
peptide: {N‑TAMRA‑3‑aminopropylazide (click)-Butanoyl(4-ethynyl)}-LRSR-{AOMK(5)}
notes: Covalent activity-based probe; also called TAMRA-LRSR-AOMK
B3: no binding (tested: 0.3 µM pre-clicked probe 2) [3]; binds [4].

B4: z-VRPR-FMK (peptide)
peptide: VRPR
modifications: not fully specified; N-terminal z group; C-terminal Arg as fluoromethylketone (FMK)
notes: Bought (Alexis Biochemicals)
B4: binds (Human cathepsin B [5]).
